According to a protein production outcome set (Wang et al. 2014):

Experiment: label from the status in PepcDB records

Sequence | protein production
MLSYDLNERLLTAVQSGDFEQALGCIMQGAQASYVSPTCGRTAVGTAAILGDAELLELLLQSCEEPELNVFHQSNTDSLEIERTPEGMEKLEWVDEFENSAENGAGSGEEDSQLYQYYAKTFETTGEFISSQCCVSCREHDPHLYDADVATPLHYAAYWGHEECVRILLEHNAPINVLNNDGYAPLHLGAGFAGVTELLIKHGALVNAKTLSDGKTALHMAIESKCAESARLLLQTNININDTDDDGETPLMAAIACSMLDVAEELVKRGARINIQDKQNHTALQYAVRGRHTQMAKLLLERGARRLASQHLLHLAVESNVKELVELLLQYGESLSVWNLKNFTPIMLAIHRGRHEMLEYLLNVAEEQRKLGLYSDVHDEGLVLFAVQQNFWVKEFSRILRVLLAKSPSARNDFYDSCAPTIVCGLIYCHTPLSRAINLHRLEVAEFLIHEGCNLAQICREHVVNELRSNCTPTRLAFARLLCNAGFQFPHKHRPLPKDWPPARLEFEREMCLLGTQPRSLQSLARLEIRRSLLRCLQTRPEVQERYLPTQERSSLGRIVDEFAIPATLKRYLSDFDELPPVRGMEPVDIPVVKWTESWD | failed
MDYCYTGDTHEKLFAAYRADEEPFPTQTQMEFPRREHRRPEIDILKRLFFPTCWNAAELVRDELAVLDRLDTLGGLFFAGIRPYSGSDPAETVDAVIDQLPAVRTRLKKDVEAAFKGDPAAKTYMEIIRSYPGFMAILVQRVAHTLYEAGASEYARELTEYAKTETGIDIHPGAEIGDHFFIDHGTGVVIGETTTVGEWVRLYQDVTLGALHFEADESDEHRLKKGYKRHPDIGDHVVIGAGTKVLGAISVGDHVSIGANSWVTDDIPDDTKVYVTDHPTQERKRTN | failed
MARHRDRAAGMNMAMMRLRREDPRVVGSFRLHRRLGAGGMGVVYLGSDKKGQRVALKVIRPDLAEDQEFRSRFAREVSAARRIRGGCTARLVAADLEADRPWFATQYVPGPSLHDKVADGGPLGAADVAAVGAALSEGLVAVHEAGVVHRDLKPSNILLSPKGPRIIDFGIAWATGASTLTHVGTAVGSPGFLAPEQVRGAAVTPATDVFSLGATLAYASMGDSPFGHGSSEVMLYRVVHEEAQLHGVPDALAPLVRACLAKDPEERPSTLQLSLRLKEIAAREAQGMADVRPPAPRSGEADVPTGRLADTYPERAQRRPQGRPGPQGTPAPRGTSASRGSAPRGSVPSRGGAPSRGGTPSRGGTPSRGGTSSRGGGTGARSGSRPTPTRDTTGRNSSRNDGGRPAPRGGSGRTAPRTTGTGWRRPANPRLLRQRLFVFVVVTLLVALGIAAAQGCQGPARGLGDERGGGVRATQRDQVDPPGGLPEPRTPGR | failed
MSEADGLRQRRPLRPQVVTDDGQVPEVKEGSSFSGRVFRMTFLMLAVSLAIPLLGAMMLLESPIDPQSFSFKEPPFMFGVLHPNTKLRQAERLFENQLSGPESIVNIGDVLFTGTADGRVVKLENGEIETIARFGSGPCKTRDDEPTCGRPLGIRAGPNGTLFVVDAYKGLFEVNPQKRSVKLLLSSETPIEGKKMSFVNDLTVTRDGRKIYFTDSSSKWQRRDYLLLVMEATDDGRLLEYDTVTKEVKVLLDQLQFPNGVQLSPEEDFVLVAETTMARIRRVYVSGLMKGGADMFVENMPGFPDNIRPSSSGGYWVAAATIRANPGFSMLDFLSDKPFIKRMIFKMFSQETVMKFVPRYSLVLEVSDSGAFRRSLHDPDGQVVTYVSEAHEHDGYLYLGSFRSPFICRLSLQSI | failed
MMETTAGDTLQQFVTAPVRTATYKRLLYLLLAFPLGVAYFVAFTTGSSLGLGLAFTLVGLPVLLVTLVATTGAAGLEARLATVLLDQEVATPPSPRETLDSDDGYLAAVWRFATEPTTWTSVAVVLLKFVYGIVAFVVTITGTALVGTLLAAPFVYDDPGVNYQFGQYAVSTLPEAIGVATVGVAGIWILCNVINVVAAAGGLMTDAFLSVGRERAA | failed
MNFQENLAALDLEYLWHPCSQMQEHQNFPIIPIKKAQGIYLYDFNDNAYMDLISSWWVNLFGHNNAYISQQLKNQIDDLEHVLLASFSHKPIITLSQRLCQLTHMDKCFYADNGSSCVEIALKMSYHAHFLKNQTRRKKLFLSLSNSYHGETLGALSVGDVKLYKDTYTPLLLKNLTTPVPKNDHEIENSLNALKRLLDKHSEEICAFIAEPLLQCAGNMHIYSARYLKQAVLLCKQKNIHIIFDEIATGFGRTGSMFAYEQCEIKPDFLCLSKGISGGYLPLSALLTHNEIYNQFYAPYEENKAFLHSHSYTGNALACACANATLDIFEKENVIEKNKALSGFIFNTLQNALKPLMEQQVVSDLRHLGMVFAFEVFIQTKERLSLAVFKKTLKKGLLLRPLNNTIYLMPPYIITHEEVKKAVAGLVEILDELRKG | failed
MVKTMAKKKAVKVLRKQKKRETLRRFTQKQNIGRACLTAQEFRLLQRMSHSSKALRNVGLYTMKQSYLNHNKMATVKEVDIAMQADMNYWGIQSNSLQAIRRALFTEVKSFFKALEKWKKNPEKFTGRPKFPNYSHSTDKRIIEIYQVPKVDENGFWMIPMSVAFRKKFGSIKIRMPKNLRNKNISYIEIVPKQKGRFFEVHYTYEMHVSQMKKQPMTTSNALGCDLGVDRLVSCVTNTGDAFLIDGKKLKSINQYFNKTIRNLQQKNVENGLSKRIVTNKIAALWHKRERQIHGYIAQTVGLLFKKVKEFDIDTIVVGYNAGWKQNSHMGKKNNQKFVQIPFHKLIAAIENKCIKEGIRFFKQEESYTSKASFLDKDPVPVWSKDDRTQYRFSGKRITRGLYQSKAGTCIHADINGALNTLQKSQVVELDGNLKVKTPILLEVQKRKAVASRIALEHHHHHH | failed
MAASPKDPLDWAALLQLQMDEAFDFILRSEAGSVAECDLSPPVDIFETPDAFSVEFDLPGTDPADLSLKLCCNMLILEGVKRDDSREGGSYLCLERRFGRFCRTVEIPPTVDVSAVRADYRRGVLTVTFPRLSDRRKVMRDIPIIQGDN | failed
MVLLEKLWDDVVAGPQPDRGLGRLRKITTQPINIRDIGEGSSSKVVMHRSLTMPAAVSPGTPTTPTTPTTPRKDNVWRSVFNPGSNLATRAIGSNIFDKPTHPNSPSVYDWLYSGDSRSQHR | failed
MASEHHEALNLYAVRVARGEGVKQDFARAASLFRRADRCGFNCEPVYDDMVNDFRDKAFGMELVSSKRAFLKALRPETAEARCTVGEAFIGQGDADSLRTGRELLTSAATLGSGKAMYLLGVLCRDGKGVAANAERAFMWFSLAASCGFAKAESERVNAEGKLDDAGRTRAMQLAARWRRQYLAPVCLEHHHHHH | failed
MPSDGLPKNLEPLAAGDPATIGPYVLVGRLGSGGMGTVYLGRAPEKGTHVAIKVIRPELAFDEATRARFRDEMENARKVASFCTAKVLDHGTFQNRPYMVTEYIAGTALAEHIAEHGPLDSGTLHGFALGVAAALAAIHKAGLVHRDLKPANVLLSLSGPRVIDFGIARALNTSTSHTQTGIVMGSPGWMAPEQLLEEKVTTKADIFAWGCLVAFAGNGRHPFGNGDAMTLGKRMLFAEPDIGNLDPPLDRLVARALAKDPDQRPTAQELLLELAGGTDSNDTNDVVSHALHQSWRPNFPPMPPGYPPPSPQAHSGMPGPQAQAQAPGQTTIAPQPYAHPQQGGPGPMPPQAAGPQGGPQGGPQSPPMPQRPGPQASHHTGQIPVVPPTTGRQPPRSPAAQGSSGGPQARPYVPPNTLPPHRPLRPDSSRSRLLIVFAVLGAVLLAVVLVFGLVFFQDWFSSTSDTNPPGQGQEQQSSAPKEDPDDESDKSDTQAADPQAGESLRFDLLDWYCGNQVLDRPLIVNGGEYCVAEIEAHNSANYPVKFRHDLQILAHASGEQTKADAPLHGEGADPLWAGPIQPGDTVRGYLVFIVHSELTPEVLILRSTVDSPGQQIEIPSGQPA | failed
STTEEESLSAAEEGYNVQRDYWRQAEESDGFDIENIKLPPGMHGRVMGLITYNCQLCYRYPFPVLVKLYAKFGLHRYNLIKGTSFELAALMKFNMLQNYMSSFYMTLLAHDPDPAASSSQKTFQVRVDEQQFGTLGINCSIARPKHEGDLLEVSTKTPFIPHFHGGALGDGIFKGELPDCLSDDALNALMEAVSKDELPEHVLDDALYARAGGIFQGELPDWPSDDALNDGKRFYMLKESEWQATDWISMYLELVITTTDRSITEPEVLSKLEIVKVAIETATKDEEPSNERLKAYRAHFYITFKGLAEPRAPRQVFEIGEHVERQAIVRRVMGHRGDLTLKGKLCGGQYIKRRSLALKSGEESPNCKKQTRVG | failed
MKRFIVRAVLILVSFVLLIQLWIFCSLAWWRTHPVETTMFMRLDYWSDSSKPIQQQWRDYDEISDNFKKAVVAAEDGKFVHHHGFDWEGIQYALEKNEKSGEVVNGGSTISQQLAKNLFLYNQRSLIRKGQEAIATWMMERMWSKQRILEVYMNSVQFGDHLYGVEAASHYYFHRSAQNLTRDQAAFLAALLPNPKYYQENRNDPRFKFKKRFTLKYMRYSEIP | failed
MYKHILVPVDLNEQGFADKAVQLAVWHAKHSNAEIHLLNVLPGIHMSMVATYFPKDAAAQMKNDVRAQLKAFAEKHIAEEVVYKLHIAEGKPYATILDYAERLGADLIVMPSHKRSRIDKVMLGSVASKVVENSPINVMVVKPQG | not failed
MYEPGTEQINCNGRLIELPTLEVVRPAPKMPSDANIDWLLHIYFTRREFTRCRRLIERELNRHLNPEYLYFVQGLIDREEGNHIEALRHLQKSAELNPRNIETYKEIGRTLYIMGRFSQALGVFREAEQRSSRQDHEIYHYLGELLYRAATTQSQKDVASQQQDEARTYFELAVQSGRKLESYVRLAELYRKDKQYQKAIEILENCLHLTPENSEVLIEISVLYLKINETQKAHDRLAEVVSIERKCSPKGLLAFGAILQSRNDIDGALSKYSQIANAEPEIAELWNNIGLCFFKKQKFIVAISSLRKSVWLSPLNYNALYNLSLIYIASEQYASAFHTLAAAINLRKDNAECYMLLGLCLRKLDDMENAFVALERASSMATGQQGAGRNPLVVLNFALFCYETGRLALSTEQYNRFMSQAQDLLLPTEYKFQATKLKSLLRISNQGNGILLDSADMGESDLGHNRATELLPDELPLEVNAVVSQN | failed
MPEEVSNEIEAPSLHTPEEVLLHYWGYPSFRPVQLPIIESVLAGKDTLGLLPTGGGKSITFQVPGLLLPGLTLVVTPLIALMRDQIMGLRQKGIKATAVHAGMTREQIITTLDNCIYGRYKFLYVSPERLGSELFLSRLHALRVSLLVVDECHCISQWGYDFRPAYLSIADIREALPDVPVLALTATATRPVIDDIQRILRFPEPNVLRKSFFRPNLSYSIRRTADKETMLLHILSRVDGSAVVYCRNRDKARDLARFLGENGFSADFYHAGLNHVTREIRQKSWMEGETRIIVCTNAFGMGIDKPDVRLVLHMEMPSSPEEYFQEAGRAGRDGERAYAVLLAGEDDIFNLKRRVSNEFPPREYIATVYNRICNYLQIGEGEGFERSFDFDIDAFCRNFRMFPTQVLAAIRILDVAGIWEYREEKTRSRLTIQVQRDELYRMRSEQASDSVLTALMRTYDGLFADYVSIVESELAEKTGLSVDQVYQQLLLLNKAGIVNYIPQKNLPRIYFLTRREDAELLQIPRAAYEDRRDRLKARIDQSLRYIEEENTCRSRMLLAYFGEEQSHNCKLCDVCLRRKDGELHHHEVDDLLHFLEQRLTEETPYVLIADICRELHHHPDVVLKAIRFVMKESWQYSTDGDTVFLTHKLPGGLNL | failed
MAVTPVLACYRTCDAAIGGITAWQVTTGPDGPRTNVVGSCPLGDASWVTPLYHLVVVLCERDGTLVVVHPGREFQVVGTVQLKGQWPCHGAVDPTGRLMAVADYASGQVEFVDLSDPTRPTVRNVLDLGQGCVFPRPVADRQEGPHAHQVTWLDRAHLAVTDLGADRINVVRWSEAGPEIIGSLKTPAGCGPRHLTLTEDGRKQILTVGGALSGTVSTWSRPTGHDMWAREWRFVQETASSRWSHTGSQERRSACTPASPSAIVTTPDGRHFVANRSVGSIGILGGRFGRINLIDEFDTTGANPRDITVTTQNGTRVWVALPEEGQIAIHLRDEDTGGWQVETTIDQPGAMRVIVGPTTG | failed
MQLSHRPAETGDLETVAGFPQDRDELFYCYPKAIWPFSVAQLAAAIAERRGSTVAVHDGQVLGFANFYQWQHGDFCALGNMMVAPAARGLGVARYLIGVMENLAREQYKARLMKISCFNANAAGLLLYTQLGYQPRAIAERHDPDGRRVALIQMDKPLEP | not failed
